According to patent US20040097586A1, “Anti-tumor compounds” (priority 2001, published 2004):
Peptide text beside a SMILES is read from it.

What was measured:
OF-1 mice = assay: Toxicity/procoagulant activity after intravenous injection; format: in vivo; details: intravenous administration; dose levels as low as
Description: N-D-Ala-D-Leu-D-Ala-D-Leu-DNR was injected in the lateral tail vein of OF-1 mice at different dose levels in order to determine the minimal dose that induces acute toxicity and kills the animals in less than an hour following the injection. Animals were injected with this dose level and sacrificed befor death resulting from the injection of the conjugate occurs. Organs and tissues were collected, fixed and prepared for histopathology.

[1] = format: in vitro ADME, human
Description: The stability of this prodrug in whole human blood was determined, and its activation into the DNR-D-tetrapeptide (or any other positively charged derivative) was checked after incubation in the presence of human cancer cells conditioned media. Breast (MCF-7, MDA-MB-231), colon (LS-174-T), prostate (LNCaP) and lung (COR-L23, NCl-H69) cancer cell lines were used. Metabolites were analyzed by reverse phase-high pressure liquid chromatography (RP-HPLC), and fluorescence detection was used to identify and quantify the DNR derivatives generated over time. […] This particular prodrug is suitable for the in vivo validation of the concept.

tumor-bearing mice = assay: Tissue distribution studies in tumor-bearing mice; format: in vivo; details: i.v., plasma and tissues, RP-HPLC
Description: Mice bearing the same tumor types used for efficacy studies were used. They were injected i.v. with the prodrug, and anesthetized at selected time points. Plasma and tissues (tumor, liver, kidney, spleen, heart, lung and skeletal muscle) were recovered, snap frozen in liquid nitrogen and stored at −80° C. The prodrug and its metabolites were then extracted and quantified by RP-HPLC with fluorescence detection.

enzyme X = details: cited from earlier work
[2] = Test of polycationic polymers as procoagulant; details: commercially available polymer
Description: An alternative to aggregation inducers to form the positively charged ‘particles’ responsible for coagulation is to use polymers such as poly-Lys. […] POIY-D-Lys of different size derivatized with D-amino acids, dipeptides, tripeptides or tetrapeptides on their terminal and side chain free amino groups were prepared (FIG. 5). Their toxicity and procoagulant activities were compared, and interesting candidates were used for the preparation of prodrugs (FIG. 5). N-succinyl-[…]-Ala-L-Leu-L-Ala-L-Leu or PEG-Ala-Leu-Ala-Leu prodrugs were prepared and compared in terms of efficacy and toxicity to the prodrugs based on aggregation inducers as described above. Alternatively, tests were performed using poly-D-Arg.

COc1cccc2c1C(=O)c1c(O)c3c(c(O)c1C2=O)C[C@@](O)(C(C)=O)C[C@@H]3O[C@H]1C[C@H](NC(=O)[C@@H](CC(C)C)NC(=O)[C@@H](C)NC(=O)[C@@H](CC(C)C)NC(=O)[C@@H](C)N)[C@H](O)[C@H](C)O1 [N-D-Ala-D-Leu-D-Ala-D-Leu-daunorubicin, N-D-Ala-D-Leu-D-Ala-D-Leu-DNR] (HELM PEPTIDE1{[dA].[dL].[dA].[dL].[COc1cccc2c1C(=O)c1c(O)c3c(c(O)c1C2=O)C[C@@](O)(C(C)=O)C[C@@H]3O[C@H]1C[C@H](N[*:1])[C@H](O)[C@H](C)O1]}$$$$V2.0)
dose level inducing disseminated intravascular blood clotting (OF-1 mice): 34.5 µmol/kg

COc1cccc2c1C(=O)c1c(O)c3c(c(O)c1C2=O)C[C@@](O)(C(=O)CO)C[C@@H]3O[C@H]1C[C@H](NC(=O)[C@@H](CC(C)C)NC(=O)[C@@H](C)NC(=O)[C@@H](CC(C)C)NC(=O)[C@@H](C)N)[C@H](O)[C@H](C)O1 [N-D-Ala-D-Leu-D-Ala-D-Leu-doxorubicin] (HELM PEPTIDE1{[dA].[dL].[dA].[dL].[COc1cccc2c1C(=O)c1c(O)c3c(c(O)c1C2=O)C[C@@](O)(C(=O)CO)C[C@@H]3O[C@H]1C[C@H](N[*:1])[C@H](O)[C@H](C)O1]}$$$$V2.0; N-terminus and C-terminus assumed)
dose level inducing disseminated intravascular blood clotting (OF-1 mice): 34.5 µmol/kg

N-mPEG350-[…]-Ala-L-Leu-L-Ala-L-Leu-D-Ala-D-Leu-D-Ala-D-Leu-DNR
metabolite formed upon incubation in cancer cells conditioned media [1]: yielded the positively-charged N-L-Leu-D-Ala-D-Leu-D-Ala-D-Leu-DNR derivative
stability in whole human blood [1]: relatively stable
tissue distribution: site of metabolite generation (tumor-bearing mice): generation of a positively-charged procoagulant metabolite specifically within the tumor

N-succinyl-[…]-Ala-L-Leu-L-Ala-L-Leu
substrate quality for enzyme X (enzyme X): optimal substrate

Poly-D-Lys
test as procoagulant polymer [2]: positively tested
